From PMC4574351, “Tubulin cofactors and Arl2 are cage-like chaperones that regulate the soluble αβ-tubulin pool for microtubule dynamics” (eLife, 2015)
Each block holds one substance with its values, some of them ahead of it.

Experiments:
[1] = biological target: TBC-DEG complex (TBCD-TBCE-Arl2 GTPase heterotrimer) (S. cerevisiae) (UniProt P40987)
[2] = biological target: TBC-DEG complex (TBCD-TBCE-Arl2 GTPase heterotrimer) (S. cerevisiae) (UniProt P40987); remark: listed apart in the source
[3] = biological target: TBC-DEG complex (TBCD-TBCE-Arl2 GTPase heterotrimer) (S. cerevisiae) (UniProt P40987); assay: SEC-MALS; WTC-03S5 column; purified TBC-DEG (subunits co-expressed and co-purified), αβ-tubulin, TBCC and their complexes; ternary complex with GDP·ALFx (wild type) or GTP (Q73L)
[4] = biological target: TBC-DEG:αβ-tubulin complex (S. cerevisiae | porcine) (UniProt P40987)

TBC-DEG complex (TBCD-TBCE-Arl2 GTPase heterotrimer) (S. cerevisiae), sequence (P40987 whole entry, chain 1 of 3): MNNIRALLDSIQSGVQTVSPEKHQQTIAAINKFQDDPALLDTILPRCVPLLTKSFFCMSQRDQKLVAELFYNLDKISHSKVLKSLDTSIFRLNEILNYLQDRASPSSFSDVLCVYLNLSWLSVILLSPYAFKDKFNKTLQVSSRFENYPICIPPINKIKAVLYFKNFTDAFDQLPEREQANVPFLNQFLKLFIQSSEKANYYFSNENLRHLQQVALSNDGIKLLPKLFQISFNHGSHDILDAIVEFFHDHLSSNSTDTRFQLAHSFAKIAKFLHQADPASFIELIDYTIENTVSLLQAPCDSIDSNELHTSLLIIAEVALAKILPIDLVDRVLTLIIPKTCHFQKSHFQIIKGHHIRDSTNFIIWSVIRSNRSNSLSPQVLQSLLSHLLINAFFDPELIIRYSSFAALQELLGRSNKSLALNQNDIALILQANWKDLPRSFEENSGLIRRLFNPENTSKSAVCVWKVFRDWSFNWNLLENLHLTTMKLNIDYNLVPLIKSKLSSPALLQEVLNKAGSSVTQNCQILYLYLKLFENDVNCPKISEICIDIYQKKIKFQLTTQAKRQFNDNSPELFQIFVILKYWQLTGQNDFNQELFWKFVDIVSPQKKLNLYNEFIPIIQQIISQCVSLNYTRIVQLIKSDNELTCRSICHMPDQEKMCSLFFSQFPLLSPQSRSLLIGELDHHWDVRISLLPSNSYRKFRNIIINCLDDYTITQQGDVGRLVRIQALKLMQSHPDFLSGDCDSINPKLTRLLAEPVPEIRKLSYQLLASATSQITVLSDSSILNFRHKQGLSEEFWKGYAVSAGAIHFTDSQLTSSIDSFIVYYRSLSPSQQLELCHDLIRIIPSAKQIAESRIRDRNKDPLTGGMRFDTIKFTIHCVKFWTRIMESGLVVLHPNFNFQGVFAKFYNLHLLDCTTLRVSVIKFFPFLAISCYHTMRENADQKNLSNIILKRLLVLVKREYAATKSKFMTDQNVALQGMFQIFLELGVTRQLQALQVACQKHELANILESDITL
TBC-DEG complex (TBCD-TBCE-Arl2 GTPase heterotrimer) (S. cerevisiae), sequence (P39937 whole entry, chain 2 of 3, further chain): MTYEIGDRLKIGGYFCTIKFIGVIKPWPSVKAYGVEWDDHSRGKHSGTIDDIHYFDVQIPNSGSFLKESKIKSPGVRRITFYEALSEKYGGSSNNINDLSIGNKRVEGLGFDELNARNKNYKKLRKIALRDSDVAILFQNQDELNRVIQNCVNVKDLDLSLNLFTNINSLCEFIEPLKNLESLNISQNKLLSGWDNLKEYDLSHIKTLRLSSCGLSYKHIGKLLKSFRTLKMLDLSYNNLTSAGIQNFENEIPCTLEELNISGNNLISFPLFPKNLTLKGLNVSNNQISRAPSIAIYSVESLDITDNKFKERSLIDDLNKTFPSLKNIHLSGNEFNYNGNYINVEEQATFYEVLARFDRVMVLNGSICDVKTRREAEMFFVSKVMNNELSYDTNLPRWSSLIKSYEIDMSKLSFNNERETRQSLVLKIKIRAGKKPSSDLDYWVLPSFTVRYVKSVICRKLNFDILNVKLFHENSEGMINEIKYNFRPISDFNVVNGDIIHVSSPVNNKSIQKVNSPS
TBC-DEG complex (TBCD-TBCE-Arl2 GTPase heterotrimer) (S. cerevisiae), sequence (P39110 whole entry, chain 3 of 3, further chain): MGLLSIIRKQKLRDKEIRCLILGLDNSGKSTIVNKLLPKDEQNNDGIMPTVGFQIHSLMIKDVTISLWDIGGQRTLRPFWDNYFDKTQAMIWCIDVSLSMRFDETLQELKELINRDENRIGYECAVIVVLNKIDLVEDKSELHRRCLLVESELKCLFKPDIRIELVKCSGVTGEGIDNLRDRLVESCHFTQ

steady-state GTP hydrolysis kcat (malachite green), 1 μM TBC-DEG:1 μM TBCC [1]: 12800 M⁻¹ s⁻¹
Substance: Tubulin cofactor C (TBCC), S. cerevisiae Cin2p (from UniProt P46670 1-268) (natural protein)

steady-state GTP hydrolysis kcat (malachite green), 1 μM TBC-DEG:1 μM αβ-tub [1]: 6670 M⁻¹ s⁻¹
steady-state GTP hydrolysis kcat, 1 μM TBC-DEG and 1 μM TBCC with αβ-tubulin titrated 0.25-3.0 μM (kcat 1.10 to 2.77) [1]: 46200 M⁻¹ s⁻¹
steady-state GTP hydrolysis kcat at 3 μM αβ-tubulin, 1:3:1 TBCC:αβ-tubulin:TBC-DEG (number as in the text) [2]: 0.05 s⁻¹
stoichiometry N [3]: 1
Substance: porcine brain αβ-tubulin dimer (from UniProt P02550 1-451; P02554 1-445) (complex)

steady-state GTP hydrolysis kcat, 1 μM TBC-DEG:1 μM TBCC-Δ233-245:1 μM αβ-tub [4]: 5670 M⁻¹ s⁻¹
Substance: TBCC loop-deleted mutant Δ233-245 (from UniProt P46670 1-232; P46670 246-267) (natural protein)
